From the DeepSol protein solubility set

Assay: soluble on expression in E. coli; label from the status in PepcDB or PDB records

Row | Sequence | soluble on expression in E. coli
1 | MPGDSMCQAMAGNERHMLTSVKTGTYTMPVLHNRVSNEELKARMLAETEPRTTVSFYKYFTIDDPKAFRDRLYIQLEQYKVFGRIYIAAEGINAQISVPNNQFDAFKTGLFSAHPALDQIRLNIALEDDGKSFWVLRMKVRERIVADGIDDPTFNPANVGQYLKADRVNAMADDPDTVFVDMRNHYEYEVGHFQNALEVPSDTFREQLPMAVDMLDDIRDKNIVMYCTGGIRCEKASAYMLHHGFKNVYHVEGGIIEYARQAKAQGLPLKFIGKNFVFDERMGERISDDVIAHCHQCGASCDSHTNCRNEGCHLLFIQCPSCAAKYEGCCSTQCQDEMKLPLEEQRAIRSGRENGMKIFNKSKGLLQSTLHIPAPAAKDNAELEHHHHHH | not soluble
2 | MPGELDTFKEAVKIIIEKEFPELLSPARHMMRAIVIDARQSDCDLQVLAADGSPHPSFPPLANVLVPVRKSVQIGQKVRIGFYYGDPAMPYIDEVLSNGEA | not soluble
3 | MPGLPEVAPGDDLAKLIAAVEPGLVDGDVLLVTSKIVSKAEGRIVRADDREAAIDAETVRVVARRGALRIVENRQGLVMAAAGVDASNTPSGTVLLLPEDPDASARAIRDGLRDTLGVDVGVVVTDTFGRPWRTGLTDVAIGAAGVRVLDDLRGGTDAYGNPLSATVVATADELAAAGDLVKGKAAGLPVAVVRGLPHVIAGDDEAGARAMVRGGRDDMFRLGTSEAVREAVTQRRTVRAFTDEPVDPGAVRRAVAAAVTAPAPHHTTPWRFVLLESAESRTRLLDAMRDAWIADLRGDRKTEESIAKRVRRGDVLRNAPYLVVPCMVMDGSHSYGDARRDAAEREMFVVATGAGVQNFLVALAGERLGSAWVSSTMFCRDVVRRALGLPESWEPMGAVAVGHAAEEPRDRPARDAGAFIEVRLEHHHHHH | soluble
4 | MPGTKQVNVGSLKVGQYVMIDGVPCEIVDISVSKPGKHGGAKARVVGIGIFEKVKKEFVAPTSSKVEVPIIDRRKGQVLAIMGDMVQIMDLQTYETLELPIPEGIEGLEPGGEVEYIEAVGQYKITRVIGGK | soluble
5 | MPIPNNPGAGENAFDPVFVKDDDGYDLDSFMIPAHYKKYLTKVLVPNGVIKNRIEKLARDVMKEMGGHHIVALCVLKGGYKFFADLLDYIKALNRNSDRSIPMTVDFIRLKSYCNDQSTGDIKVIGGDDLSTLTGKNVLIVEDIIDTGKTMQTLLSLVRQYNPKMVKVACLFIKRTPLWNGFKADFVGFSIPDHFVVGYSLDYNEIFRDLDHCCLVNDEGKKKYKATSL | soluble
6 | MPIRGFHYRGDEAIYPASVVKLFYLVAALEWLQQGMIQPSAELDRALRDMIVDSSNDATGYIVDLLSGTTSGPELGDGPFKTWQFQRNIVNRYYQSLMWPELQPINVNQKTWGDGPYGRERAFYGPEFENRNKLTTNATARLLHAIAGGVAVSPSASQRMLNLLNRPFDPRSLAEDPENQVTGFLGQDLPQGSQLWSKAGWMSRVRHDAAYLEIPGLPPHLLVAFTEGKEHANNEAILPFIAQQVRQQLQPALEHHHHHH | not soluble
7 | MPIRHCIVHLIEKKPDGTPAVLHARDSELAESQAIENMLADLNESYNAKQGKAWGLFHPESGAHPFSGWLKEYLDGGKDFTAFSRVSVEHLQKLMEESNLSVGGHVLFAHYQQGMTDYLAIALLHHSDGVAVNAELDVTPSRHLDLGQLHLAARINISEWQNNKQSKQYISFIKGKNGKKVSEYFRDFIGCQEGVDGPGETRTLLKAFSDFVESEDLPEESAREKTKTLIDYASSQSKMGEPMGLEALSELIDENQPRAFYDHIRNKDYGLSPEIPADKRTLNQFRRFTGRAEGLSISFEAHLLGDKIEYDETAGTLIIKGLPTQLTDQLKRRLEHHHHHH | not soluble
8 | MPISEPTWAELPFLFKSAVVELLPYKNRCCLRKCSKSDQFLVDSTPNHLHDVAIHTCENYTVFTYSDSPDTVFTLKYFKNIGENDLKIEYSESPVLFVPGKNQKFIFKTSIHVENLASEADDVDFALDDFKLLLNRLNCKKSIINMIPNQYNPIAHPDRTIEFRQRLLDLMTSSFPKKSIKSKSLVIHWHQETQEIAEILQVFHTKTLKNLEFHDRNATWHMAPIIGTEQWKGARSVLLEHLSDVKIEELKDFNEIQMHVRDSGEQELWTVIQNFIRKNLHGSSFHFTYRQAEPNVDRILATFNVPPRDEPITARTRLRSVLGSRFIHTQRFQMPSTDLILVVMISEKEVMGTVCHVDQVNVEAKVERGLLR | not soluble
9 | MPKAKAKTKNTEIISPHHYVYPNTTTLKNKYGIKNLNAFLEKCSHDTAKAMINLREESLPEYFDTAYLCHIHQQLFKNTFEWAGYLRHIPFTFADGTTAAMPEMKRTGWKNAFAIGDEIQEGLQRLDQTLAEKNNLQGLTREEFNSEAIELFNSLNQLHPFREGNGRTQRLFFENLAKAAGHQLNFSLITKERMMVASVAVAENGDLEPMQHLFEDISNPEKIRLLKEFMHTMKNTGRNVNDRPVMVAKEGETYTGTYRGAGLEGFALNVKGAYIIGNIDHLPPEQLKILKPGDKITFTAPK | soluble
10 | MPKGNKKPNEKKEELEKFAKELQGSDSDEDAVVIEQPTVEPKLPQNDSSSSNKIVLSQAEKDLLRTELDKTEEEISTLKQVLSARQKHAAELKRKLGLTPFSELSQDINRSLKTVTDTDAYQKTAEVAAATSDTVKEKWNDMRNSSLFKSFESKLGSALNNAKMAASTSIDHLAGAARGPSQTGTPVAEEAKPIS | soluble
11 | MPKILWKSLHLCFPSNLTKCYSSPCIPPSSADPDGIIQPNRPSIVLLNNFNLLYHNDNHHHPHRVIDLPSSSTTTTPAATSSSSTSSYESDISPDVSAAFASRRFFFSSPGRSNAITDSPEPRSREFSDNYDDATITSTKKKKKKVYDNSVTTTTTRLISGGTAVTQHVDSPDPLTDFRRSMQEMIDAAIDAGELSRDPNDGYDFLDELLLTYLSLNPADTHKFVIRAFSDILVSLLSEERRIC | soluble
12 | MPKKTFENLEDSHGKDVNIPVELPKRKREVTPENLPSTSSTAPTQKRKSLGYSGRTEEPKNIHKTFISPFSTSVSPSKQGLRRRKKALPAIEPPVSVEEASPLRFVNIDVFSRRMASESSDHDAMIAKLLSRKFSIPMEGYMLSGRSLGLGGNRRKCALFDPYHEGALILYAPEHLSEHAQLKEDKDRKVHVVADPVVGKILRPHQRDGVKFMWDCVTGINIPEFHGCIMADEMGLGKTLQCISLLWTLLRQSPDACPTVSKSIIVCPSSLVKNWDKEIKKWLGTRLNAMPVDSGKREQIIACLNSFMADSKMRCAIPVLIISYETFRLYANILHSGDVGIVICDEGHRLKNSENLTYQALSGLKCARRVLISGTPIQNDLLEYFSLVNFVNPGLLGTASEFRKKFENAILKGRDADASSEDQKKGEEKTKEMISLVEKCIIRRTSALLTKYLPVKYEHIICCKNSTLQETLYNKLIECEKQNRIVEKDKGATASALSFITHLKKLCNHPYLVYDEFQKPDNRFRNKCLSIFPESFNPKSFDPSFSGKMKVLDYILAVTRKTTDDKFVLVSNYTQTIDQFMELCKLRGYDFVRLDGSMSIKQRSKIVDTFNDPASTIFCFLLSSKAGGCGLNLIGANRLVMFDPDWNPANDDQAMARVWRDGQKKMCFIYRLLATGSIEEKMFQRQTHKKALSSCVVDAGEDVARHFSSEQLRELFKLESTVASDTHEKLKCKRCIQGVESVDPPTNADCASDLSNWFHSQKSARKVADNVLRAVFECGSISFVFHQKSHNVEVKKVQEKVEEVDEDYVPSEAEENDD | soluble
13 | MPKLVTWMNNQRVGELTKLANGAHTFKYAPEWLASRYARPLSLSLPLQRGNITSDAVFNFFDNLLPDSPIVRDRIVKRYHAKSRQPFDLLSEIGRDSVGAVTLIPEDETVTHPIMAWEKLTEARLEEVLTAYKADIPLGMIREENDFRISVAGAQEKTALLRIGNDWCIPKGITPTTHIIKLPIGEIRQPNATLDLSQSVDNEYYCLLLAKELGLNVPDAEIIKAGNVRALAVERFDRRWNAERTVLLRLPQEDMCQTFGLPSSVKYESDGGPGIARIMAFLMGSSEALKDRYDFMKFQVFQWLIGATDGHAKNFSVFIQAGGSYRLTPFYDIISAFPVLGGTGIHISDLKLAMGLNASKGKKTAIDKIYPRHFLATAKVLRFPEVQMHEILSDFARMIPAALDNVKTSLPTDFPENVVTAVESNVLRLHGRLSREYGSKLEHHHHHH | soluble
14 | MPKPYVAINMAELKNEPKTFEMFASVGPKVCMVTARHPGFVGFQNHIQIGILPFGNRYGGAKMDMTKESSTVRVLQYTFWKDWKDHEEMHRQNWSYLFRLCYSCASQMIWGPWEPIYEIIYANMPINTEMTDFTAVVGKKFAEGKPLDIPVISQPYGKRVVAFAEHSVIPGKEKQFEDAIVRTLEMLKKAPGFLGAMVLKEIGVSGIGSMQFGAKGFHQVLENPGSLEPDPNNVMYSVPEAKNTPQQYIVHVEWANTDALMFGMGRVLLYPELRQVHDEVLDTLVYGPYIRILNPMMEGTFWREYLNEQAWRHPQFGG | soluble
15 | MPKRIVYNISSDFQLKSLLGEGAYGVVCSATHKPTGEIVAIKKIEPFDKPLFALRTLREIKILKHFKHENIITIFNIQRPDSFENFNEVYIIQELMQTDLHRVISTQMLSDDHIQYFIYQTLRAVKVLHGSNVIHRDLKPSNLLINSNCDLKVCDFGLARIIDESAADNSEPTGQQSGMVEFVATRWYRAPEVMLTSAKYSRAMDVWSCGCILAELFLRRPIFPGRDYRHQLLLIFGIIGTPHSDNDLRCIESPRAREYIKSLPMYPAAPLEKMFPRVNPKGIDLLQRMLVFDPAKRITAKEALEHPYLQTYHDPNDEPEGEPIPPSFFEFDHYKEALTTKDLKKLIWNEIFS | soluble
16 | MPKTISVRVTTMDAELEFAIQPNTTGKQLFDQVVKTIGLREVWFFGLQYQDTKGFSTWLKLNKKVTAQDVRKESPLLFKFRAKFYPEDVSEELIQDITQRLFFLQVKEGILNDDIYCPPETAVLLASYAVQSKYGDFNKEVHKSGYLAGDKLLPQRVLEQHKLNKDQWEERIQVWHEEHRGMLREDAVLEYLKIAQDLEMYGVNYFSIKNKKGSELWLGVDALGLNIYEQNDRLTPKIGFPWSEIRNISFNDKKFVIKPIDKKAPDFVFYAPRLRINKRILALCMGNHELYMRRRKP | soluble
17 | MPKWISIDEAAHKYGVKEEDICLWAEMEAITAYFTETTLIIDEKSLQKFMYLRKNLPTTGYIRTLEQLCINQSEVCKLYMEVIELQEKDLQYKKRRISVLERQYAMATKQNKLREKIITITSDMLSKAESGWWEKLWMKISNRQKL | not soluble
18 | MPLEASELKPTAGPLEASELKPTAGPLEASELKPTAGPLEASELKPTAGPLEASELKPTAGPLEASELKPTAGPLEASELKPTAGMKLKGRGIVKGVAEGELVVSRKPLSFLGGVDPNTGIITDPESDIQGEKITGKILAFPRGKGSTVGSYVIYALAKKGTGPKAIIVEEAEAIVAVGAIIAGIPLVTGIDISKLKSGMKVRVDGERGEVEIIAQGDLLEHHHHHH | not soluble
19 | MPLEEGVLIDCTLGLGGHSKALLSQKPHLKLIGIDKDKFAQEIAKERLKAFEGRYNLLSGGFAKRFKEALETHNKEIKGVLVDLGVSSLQLDDDNRGFNFHSHTLDMRMDLESELNAQKVINSYPIVALEKIFRDYGEIKEYKKIAHKIAERRAKKPFKNAKDLSEFLSSFSKNKKIHPATLVFQAVRIEVNSELEELKEFLQCARNLKGAILCVISFHSLEDALVKNAFKDYAKNCICDPSSFKCACSNNHALGEILTKKPITPSPEEIKNNRRSRSAKMRVFQFKPLEHHHHHH | not soluble
